# In PMC8303963, “Action of Multiple Rice β-Glucosidases on Abscisic Acid Glucose Ester” (International Journal of Molecular Sciences, 2021):
# Test system: T1, CC1=CC(=O)CC(C)(C)[C@@]1(O)/C=C/C(C)=C\C(=O)O[C@@H]1O[C@H](CO)[C@@H](O)[C@H](O)[C@H]1O
# T1 construct: recombinant from E. coli, IMAC purified; N-terminal thioredoxin and His6 tags cut off with enterokinase
# Assay: glucose release by peroxidase/glucose oxidase assay, Michaelis-Menten fit
# Assay type: biochemical, Oryza sativa
# Conditions: 50 mM sodium acetate pH 5, 30 °C
# Description: glucose release by peroxidase/glucose oxidase assay, Michaelis-Menten fit on Os4BGlu13
# Sequence of Os4BGlu13 (Oryza sativa Japonica Group) (chain, as listed by the source): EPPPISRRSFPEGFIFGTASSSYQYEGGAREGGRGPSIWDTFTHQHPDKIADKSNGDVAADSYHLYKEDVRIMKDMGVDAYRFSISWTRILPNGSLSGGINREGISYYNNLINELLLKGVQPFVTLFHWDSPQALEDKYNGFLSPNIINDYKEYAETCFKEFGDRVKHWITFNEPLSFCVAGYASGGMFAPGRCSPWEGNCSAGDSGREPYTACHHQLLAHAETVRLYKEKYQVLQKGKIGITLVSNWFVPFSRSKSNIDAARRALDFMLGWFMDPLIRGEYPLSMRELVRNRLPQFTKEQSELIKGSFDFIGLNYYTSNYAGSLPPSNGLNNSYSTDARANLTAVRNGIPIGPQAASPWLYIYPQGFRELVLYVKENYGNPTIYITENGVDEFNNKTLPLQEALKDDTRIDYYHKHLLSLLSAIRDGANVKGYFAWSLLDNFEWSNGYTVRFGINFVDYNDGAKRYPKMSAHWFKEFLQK
substance,measurement,value
Os4BGlu13 (Oryza sativa Japonica Group),Km,1660 ± 90 µM
same,kcat,20.6 ± 0.5 s⁻¹
same,kcat/Km,12400 M⁻¹ s⁻¹
